Results published in paper PMC12455585.

How the values were obtained:
Assay in all cases: fluorescence anisotropy
Details in all cases: 50 mM HEPES-NaOH pH 7.2, 50 mM NaCl (50-250 mM in salt series), 20 or 50 nM DNA, 60 min, 25 C
[1] = system: OBMg R150A (Moorella glycerini)
[2] = system: OBMg R175A (Moorella glycerini)
[3] = system: OBMg R188A (Moorella glycerini)
[4] = system: OBMg K192A (Moorella glycerini)
[5] = system: OBMg (ComEC OB fold) WT (Moorella glycerini)
[6] = system: OBMg R122A (Moorella glycerini)
[7] = system: OBMg R115A (Moorella glycerini)
[8] = system: OBMg R112A (Moorella glycerini)

Row | Sequence | binding signal (fold Kd increase vs WT) [1] | binding signal (fold Kd increase vs WT) [2] | binding signal (fold Kd increase vs WT) [3] | binding signal (fold Kd increase vs WT) [4] | Kd [5] | binding signal (fold Kd increase vs WT) [6] | binding signal (fold Kd increase vs WT) [7] | binding signal (fold Kd increase vs WT) [8]
1 | GTTCGCAACGAA (double strand) [12 bp dsDNA] | > 2 | > 2 | > 2 | > 2 | 330 nM | > 2 | > 2 | > 2
2 | GTTCGCAACGAA [12-mer ssDNA] |  |  |  |  | 790 nM |  |  | 
